{"source": "the RNAGym collection of RNA variant scans (doi:10.1093/molbev/msab373)", "parents": {"B1": {"name": "Azoarcus group I ribozyme (parent)", "chain": "GUGCCUUGCGCCGGGAAACCACGCAAGGGAUGGUGUCAAAUUCGGCGAAACCUAAGCGCCCGCCCGGGCGUAUGGCAACGCCGAGCCAAGCUUCGGCGCCUGCGCCGAUGAAGGUGUAGAGACUAGACGGCACCCACCUAAGGCAAACGCUAUGGUGAAGGCAUAGUCCAGGGAGUGGCGAAAGUCACACAAACCGG"}}}
{"variants_of": "B1", "experiment": "reverse-splicing fitness (ratio to wild type); higher = more active; in vitro selection; Mg2+ level not given", "outline": "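An in vitro group I ribozyme library with randomized positions was T7-transcribed and gel-purified. In triplicate, 10 pmol RNA in EPPS pH 7.5 was reacted with 50 pmoles of a 30-nt RNA substrate for 1 h at 37 °C across several added MgCl2 levels (1–48 mM), then stopped with EDTA. Products were reverse transcribed from a substrate-complementary primer, PCR-amplified and sequenced (HiSeq 4000). Fitness is a variant's read proportion after selection over that before, normalised to wild type.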"}
{"variant": "GUGCCUUGCGCCGGGAAACCACGCAAGGGAUGGUGUCAAAUUCGGCGAAACCUAAGCGCCCGCCCGGGCGUAUGGCAACGCCGAGCCAAGCUUCGGCGCCUGCGCCGAUGGAGGUGUAGGGACUAGACGGCACCCACCUAAGGCAAACGUUAUGGUGAAGGCAUAGUCAAGGGAGGGGCGAAAGUCACACAAACCGG", "reverse-splicing fitness": 0.00588}
{"variant": "GUGCCUUGCGCCGGGAAACCACGCAAGGGAUGGUGUCAAAUUCGGCGAAACCUAAGCGCCCGCCCGGGCGUAUGGCAACGCCGAGCCAAGCUUCGGCGCCUGCGCCGAUGGAGGUGUAGGGACUAGACGGCACCCACCUAAGGCAAACGUUAUGGUGAAGGCAUAGUCAAGGGAGAGGCGAAAGUCACACAAACCGG", "reverse-splicing fitness": 0.0291}
{"variant": "GUGCCUUGCGCCGGGAAACCACGCAAGGGAUGGUGUCAAAUUCGGCGAAACCUAAGCGCCCGCCCGGGCGUAUGGCAACGCCGAGCCAAGCUUCGGCGCCUGCGCCGAUGGAGGUGUAGGGACUAGACGGCACCCACCUAAGGCAAACGUUAUGGUGAAGGCAUAGUCAAGGGAGCGGCGAAAGUCACACAAACCGG", "reverse-splicing fitness": 0.0419}
{"variant": "GUGCCUUGCGCCGGGAAACCACGCAAGGGAUGGUGUCAAAUUCGGCGAAACCUAAGCGCCCGCCCGGGCGUAUGGCAACGCCGAGCCAAGCUUCGGCGCCUGCGCCGAUGGAGGUGUAGGGACUAGACGGCACCCACCUAAGGCAAACGUUAUGGUGAAGGCAUAGUCUAGGGAGUGGCGAAAGUCACACAAACCGG", "reverse-splicing fitness": 0.142}
{"variant": "GUGCCUUGCGCCGGGAAACCACGCAAGGGAUGGUGUCAAAUUCGGCGAAACCUAAGCGCCCGCCCGGGCGUAUGGCAACGCCGAGCCAAGCUUCGGCGCCUGCGCCGAUGGAGGUGUAGGGACUAGACGGCACCCACCUAAGGCAAACGUUAUGGUGAAGGCAUAGUCAAGGGAGUGGCGAAAGUCACACAAACCGG", "reverse-splicing fitness": 0.0914}
{"variant": "GUGCCUUGCGCCGGGAAACCACGCAAGGGAUGGUGUCAAAUUCGGCGAAACCUAAGCGCCCGCCCGGGCGUAUGGCAACGCCGAGCCAAGCUUCGGCGCCUGCGCCGAUGGAGGUGUAGGGACUAGACGGCACCCACCUAAGGCAAACGUUAUGGUGAAGGCAUAGUCGAGGGAGUGGCGAAAGUCACACAAACCGG", "reverse-splicing fitness": 0.177}
{"variant": "GUGCCUUGCGCCGGGAAACCACGCAAGGGAUGGUGUCAAAUUCGGCGAAACCUAAGCGCCCGCCCGGGCGUAUGGCAACGCCGAGCCAAGCUUCGGCGCCUGCGCCGAUGGAGGUGUAGGGACUAGACGGCACCCACCUAAGGCAAACGUUAUGGUGAAGGCAUAGUCCAGGGAGCGGCGAAAGUCACACAAACCGG", "reverse-splicing fitness": 0.0801}
{"variant": "GUGCCUUGCGCCGGGAAACCACGCAAGGGAUGGUGUCAAAUUCGGCGAAACCUAAGCGCCCGCCCGGGCGUAUGGCAACGCCGAGCCAAGCUUCGGCGCCUGCGCCGAUGGAGGUGUAGGGACUAGACGGCACCCACCUAAGGCAAACGUUAUGGUGAAGGCAUAGUCCAGGGAGAGGCGAAAGUCACACAAACCGG", "reverse-splicing fitness": 0.0505}
{"variant": "GUGCCUUGCGCCGGGAAACCACGCAAGGGAUGGUGUCAAAUUCGGCGAAACCUAAGCGCCCGCCCGGGCGUAUGGCAACGCCGAGCCAAGCUUCGGCGCCUGCGCCGAUGGAGGUGUAGGGACUAGACGGCACCCACCUAAGGCAAACGUUAUGGUGAAGGCAUAGUCCAGGGAGGGGCGAAAGUCACACAAACCGG", "reverse-splicing fitness": 0.00879}
{"variant": "GUGCCUUGCGCCGGGAAACCACGCAAGGGAUGGUGUCAAAUUCGGCGAAACCUAAGCGCCCGCCCGGGCGUAUGGCAACGCCGAGCCAAGCUUCGGCGCCUGCGCCGAUGGAGGUGUAGGGACUAGACGGCACCCACCUAAGGCAAACGUUAUGGUGAAGGCAUAGUCGAGGGAGAGGCGAAAGUCACACAAACCGG", "reverse-splicing fitness": 0.0529}
{"variant": "GUGCCUUGCGCCGGGAAACCACGCAAGGGAUGGUGUCAAAUUCGGCGAAACCUAAGCGCCCGCCCGGGCGUAUGGCAACGCCGAGCCAAGCUUCGGCGCCUGCGCCGAUGGAGGUGUAGGGACUAGACGGCACCCACCUAAGGCAAACGUUAUGGUGAAGGCAUAGUCGAGGGAGGGGCGAAAGUCACACAAACCGG", "reverse-splicing fitness": 0.00531}
{"variant": "GUGCCUUGCGCCGGGAAACCACGCAAGGGAUGGUGUCAAAUUCGGCGAAACCUAAGCGCCCGCCCGGGCGUAUGGCAACGCCGAGCCAAGCUUCGGCGCCUGCGCCGAUGGAGGUGUAGGGACUAGACGGCACCCACCUAAGGCAAACGUUAUGGUGAAGGCAUAGUCGAGGGAGCGGCGAAAGUCACACAAACCGG", "reverse-splicing fitness": 0.0735}
{"variant": "GUGCCUUGCGCCGGGAAACCACGCAAGGGAUGGUGUCAAAUUCGGCGAAACCUAAGCGCCCGCCCGGGCGUAUGGCAACGCCGAGCCAAGCUUCGGCGCCUGCGCCGAUGGAGGUGUAGGGACUAGACGGCACCCACCUAAGGCAAACGGUAUGGUGAAGGCAUAGUCCAGGGAGAGGCGAAAGUCACACAAACCGG", "reverse-splicing fitness": 0.011}
{"variant": "GUGCCUUGCGCCGGGAAACCACGCAAGGGAUGGUGUCAAAUUCGGCGAAACCUAAGCGCCCGCCCGGGCGUAUGGCAACGCCGAGCCAAGCUUCGGCGCCUGCGCCGAUGGAGGUGUAGGGACUAGACGGCACCCACCUAAGGCAAACGGUAUGGUGAAGGCAUAGUCCAGGGAGGGGCGAAAGUCACACAAACCGG", "reverse-splicing fitness": 0.00356}
{"variant": "GUGCCUUGCGCCGGGAAACCACGCAAGGGAUGGUGUCAAAUUCGGCGAAACCUAAGCGCCCGCCCGGGCGUAUGGCAACGCCGAGCCAAGCUUCGGCGCCUGCGCCGAUGGAGGUGUAGGGACUAGACGGCACCCACCUAAGGCAAACGGUAUGGUGAAGGCAUAGUCCAGGGAGCGGCGAAAGUCACACAAACCGG", "reverse-splicing fitness": 0.0173}
